These results are taken from article doi:10.1101/2025.03.01.640964 (bioRxiv, 2025).

In test [1] the target is SteC_(210-429) WT (Salmonella Typhimurium strain 14028s, UniProt D0ZIB5 210-429). The test can be described thus: BLI; […] (1 ug/ml) […] (SA) biosensors; […]; Octet Red, 25 °C; 50 mM HEPES pH 7.5, 150 mM NaCl, 10 mM MgCl2, 0.5 mM TCEP, 0.05% Tween-20; […]. Conditions: both partners purified. On the technique in general: BLI is a label-free optical method that tracks binding on a fibre tip over time.

Test [2] has as its target SteC_(210-429;K256H) (Salmonella Typhimurium strain 14028s, UniProt D0ZIB5 210-429, K256H). Described as above. Conditions: both partners purified.

Ends that are not written are not given here. * marks the point of attachment. Biotin = O=C1N[C@H]2[C@H](CS[C@H]2CCCCC(=O)*)N1

In general, Kd refers to the concentration at which binding is half-saturated. A low value points to higher affinity.

On to Biotin-KGPPSSVPKSRHLTIKLTPAHSRK (peptide, UniProt O95466 190-213, looked up) [N-terminally biotinylated FMNL1 peptide], for which the Kd in test [1] was 7.9 µM; in test [2], 22 µM.
